This test concerns the target T1, human fibrinogen (human, UniProt P02671-2 20-644; P02675 31-491; P02679-2 27-437).
T1 sequence (looked up) 1: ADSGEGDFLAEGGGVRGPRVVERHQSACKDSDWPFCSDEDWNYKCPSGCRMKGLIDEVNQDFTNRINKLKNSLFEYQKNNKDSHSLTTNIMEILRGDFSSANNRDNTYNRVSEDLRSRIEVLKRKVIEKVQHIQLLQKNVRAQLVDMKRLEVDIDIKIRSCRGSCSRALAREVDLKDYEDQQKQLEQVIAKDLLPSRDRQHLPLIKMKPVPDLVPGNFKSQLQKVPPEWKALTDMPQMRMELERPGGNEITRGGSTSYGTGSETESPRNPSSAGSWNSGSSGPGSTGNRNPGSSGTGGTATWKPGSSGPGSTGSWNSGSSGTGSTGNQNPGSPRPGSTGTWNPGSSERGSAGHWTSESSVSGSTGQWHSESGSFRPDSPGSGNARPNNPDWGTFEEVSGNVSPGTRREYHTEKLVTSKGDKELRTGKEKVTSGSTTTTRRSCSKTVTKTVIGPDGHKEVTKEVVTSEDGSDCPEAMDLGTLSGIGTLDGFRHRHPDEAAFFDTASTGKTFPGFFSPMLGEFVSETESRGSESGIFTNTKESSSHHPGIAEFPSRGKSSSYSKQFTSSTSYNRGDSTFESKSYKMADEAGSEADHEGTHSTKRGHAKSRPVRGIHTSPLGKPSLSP
T1 sequence (looked up) 2: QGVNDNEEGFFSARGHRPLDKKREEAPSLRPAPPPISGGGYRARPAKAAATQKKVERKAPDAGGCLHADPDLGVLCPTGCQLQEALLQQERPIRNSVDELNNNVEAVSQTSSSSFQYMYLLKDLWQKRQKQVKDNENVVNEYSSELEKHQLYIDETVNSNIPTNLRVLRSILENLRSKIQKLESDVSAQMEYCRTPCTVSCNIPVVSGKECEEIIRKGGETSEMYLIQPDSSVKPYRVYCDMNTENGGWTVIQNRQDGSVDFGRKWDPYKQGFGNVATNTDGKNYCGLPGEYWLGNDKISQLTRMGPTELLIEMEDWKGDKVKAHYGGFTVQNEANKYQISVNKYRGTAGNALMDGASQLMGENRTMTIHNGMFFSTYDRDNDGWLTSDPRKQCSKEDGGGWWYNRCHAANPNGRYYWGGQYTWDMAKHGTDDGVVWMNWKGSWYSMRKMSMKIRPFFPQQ
T1 sequence (looked up) 3: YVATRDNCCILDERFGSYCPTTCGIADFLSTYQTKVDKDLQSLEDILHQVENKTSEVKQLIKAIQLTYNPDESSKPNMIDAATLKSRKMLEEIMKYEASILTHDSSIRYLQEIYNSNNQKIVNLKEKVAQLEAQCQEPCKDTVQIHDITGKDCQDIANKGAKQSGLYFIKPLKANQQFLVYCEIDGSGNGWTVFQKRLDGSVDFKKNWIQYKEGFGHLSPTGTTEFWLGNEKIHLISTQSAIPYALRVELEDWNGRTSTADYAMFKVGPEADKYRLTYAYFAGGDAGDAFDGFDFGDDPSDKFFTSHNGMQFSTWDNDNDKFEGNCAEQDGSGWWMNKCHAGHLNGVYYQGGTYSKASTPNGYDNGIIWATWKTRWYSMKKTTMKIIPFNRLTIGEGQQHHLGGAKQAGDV
Put plainly: SPR.

B1: recombinant von Willebrand factor (VWF) A2 domain polypeptide, A2_(1481-1668) (domain or fragment)
chain: GLLGVSTLGPKRNSMVLDVAFVLEGSDKIGEADFNRSKEFMEEVIQRMDVGQDSIHVTVLQYSYMVTVEYPFSEAQSKGDILQRVREIRYQGGNRTNTGLALRYLSDHSFLVSQGDREQAPNLVYMVTGNPASDEIKRLPGDIQVVPIGVGPNANVQELERIGWPNAPILIQDFETLPREAPDLVLQR
For orientation: Kd means the free concentration of one partner at which half of the binding sites on the other are occupied at equilibrium, for simple one-to-one binding. Low readings indicate tighter binding, high ones weaker binding. B1 had a dissociation constant Kd of 125 ± 30 nM.

The values are drawn from publication PMC5270629 (Thrombosis research, 2015).
